Measurements as given in IntAct's records for PubMed 10206957.

B1: Signal peptidase complex catalytic subunit SEC11 (Saccharomyces cerevisiae), P15367 (parent)
chain: MNLRFELQKLLNVCFLFASAYMFWQGLAIATNSASPIVVVLSGSMEPAFQRGDILFLWNRNTFNQVGDVVVYEVEGKQIPIVHRVLRQHNNHADKQFLLTKGDNNAGNDISLYANKKIYLNKSKEIVGTVKGYFPQLGYITIWISENKYAKFALLGMLGLSALLGGE
partner: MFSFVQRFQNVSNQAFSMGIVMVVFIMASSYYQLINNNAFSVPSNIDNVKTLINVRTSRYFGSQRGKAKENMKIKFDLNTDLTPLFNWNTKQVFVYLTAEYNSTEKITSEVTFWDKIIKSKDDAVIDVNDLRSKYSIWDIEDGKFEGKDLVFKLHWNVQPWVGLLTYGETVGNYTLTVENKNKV

Variants of: B1
Conditions: with spc3_yeast SPC3, Q12133

Variant | effect of a mutation on the interaction
D103N | decreasing interaction
